{"source": "paper PMC5473857", "about": "“ZipA and FtsA* stabilize FtsZ-GDP miniring structures” (Scientific Reports, 2017)", "binders": {"B1": {"name": "FtsZ from E. coli (wild type, unlabeled) (natural protein, UniProt P0A9A6 1-383, looked up)", "chain": "MFEPMELTNDAVIKVIGVGGGGGNAVEHMVRERIEGVEFFAVNTDAQALRKTAVGQTIQIGSGITKGLGAGANPEVGRNAADEDRDALRAALEGADMVFIAAGMGGGTGTGAAPVVAEVAKDLGILTVAVVTKPFNFEGKKRMAFAEQGITELSKHVDSLITIPNDKLLKVLGRGISLLDAFGAANDVLKGAVQGIAELITRPGLMNVDFADVRTVMSEMGYAMMGSGVASGEDRAEEAAEMAISSPLLEDIDLSGARGVLVNITAGFDLRLDEFETVGNTIRAFASDNATVVIGTSLDPDMNDELRVTVVATGIGMDKRPEITLVTNKQVQQPVMDRYQQHGMAPLTQEQKPVAKVVNDNAPQTAKEPDYLDIPAFLRKQAD", "notes": "Cell division protein FtsZ, E. coli; assembles into polymers with GTP, GDP or GMPCPP; also called FtsZ-GTP; FtsZ-GDP; source: over-expressed from plasmid pET11b, purified (30% saturated ammonium sulfate, source Q 10/10 column)"}}, "key": {"[1]": {"molecular_target": "the molecule itself", "assay": "negative-stain electron microscopy; FtsZ alone assembled with GTP; 5 uM FtsZ in HMK buffer pH 7.5 (50 mM HEPES, 100 mM KAc, 5 mM MgAc); also 5 and 10 uM FtsZ in MEK buffer pH 6.5 with 1 mM EDTA plus GTP, and 5 uM FtsZ in HMK with 0.5 mM GMPCPP; 2% uranyl acetate"}, "[2]": {"molecular_target": "B1", "assay": "Trp quenching of ATTO fluorescence; 1 part ATTO-655-labeled FtsZ T151C/Y222W mixed with 9 parts unlabeled wild-type FtsZ; MMK buffer pH 6.5; 25 °C; excitation 650 nm, emission 680 nm; assembly kinetics", "conditions": "both partners purified"}, "[3]": {"molecular_target": "the molecule itself", "assay": "negative-stain electron microscopy; FtsZ alone assembled with 0.5 mM GDP, HMK buffer pH 7.5; 5 uM (and 15 uM for E. coli FtsZ); 2% uranyl acetate"}}, "data": [{"binder": "B1", "values": [{"measurement": "binding result", "setting": "[1]", "result": "binds"}]}, {"binder": "FtsZ T151C/Y222W labeled with ATTO-655-maleimide (natural protein, E. coli, UniProt P0A9A6 1-383, looked up, labeled with ATTO-655-maleimide, Cell division protein FtsZ, E. coli, double mutant T151C/Y222W; Used diluted with a 9-fold excess of unlabeled wild-type FtsZ; also called FtsZY222W/T151C; labeled FtsZ; source: over-expressed from plasmid pET11b, purified (ammonium sulfate, source Q 10/10 column)) MFEPMELTNDAVIKVIGVGGGGGNAVEHMVRERIEGVEFFAVNTDAQALRKTAVGQTIQIGSGITKGLGAGANPEVGRNAADEDRDALRAALEGADMVFIAAGMGGGTGTGAAPVVAEVAKDLGILTVAVVTKPFNFEGKKRMAFAEQGICELSKHVDSLITIPNDKLLKVLGRGISLLDAFGAANDVLKGAVQGIAELITRPGLMNVDFADVRTVMSEMGWAMMGSGVASGEDRAEEAAEMAISSPLLEDIDLSGARGVLVNITAGFDLRLDEFETVGNTIRAFASDNATVVIGTSLDPDMNDELRVTVVATGIGMDKRPEITLVTNKQVQQPVMDRYQQHGMAPLTQEQKPVAKVVNDNAPQTAKEPDYLDIPAFLRKQAD", "values": [{"measurement": "binding result", "setting": "[2]", "result": "binds"}]}, {"binder": "PaFtsZ (FtsZ from Pseudomonas aeruginosa), full length (natural protein, UniProt P47204 1-394, looked up, Cell division protein FtsZ, Pseudomonas aeruginosa; also called His6-PaFtsZ; source: expressed from pET15b (NdeI/BamHI), purified (Talon column, thrombin, source Q 10/10 column)) MFELVDNIAQTAVIKVIGVGGGGGNAVNHMAKNNVEGVEFICANTDAQALKNIAARTVLQLGPGVTKGLGAGANPEVGRQAALEDRERISEVLEGADMVFITTGMGGGTGTGAAPIIAEVAKEMGILTVAVVTRPFPFEGRKRMQIADEGIRALAESVDSLITIPNEKLLTILGKDASLLAAFAKADDVLAGAVRGISDIIKRPGMINVDFADVKTVMSEMGMAMMGTGCASGPNRAREATEAAIRNPLLEDVNLQGARGILVNITAGPDLSLGEYSDVGNIIEQFASEHATVKVGTVIDADMRDELHVTVVATGLGARLEKPVKVVDNTVQGSAAQAAAPAQREQQSVNYRDLDRPTVMRNQSHGSAATAAKLNPQDDLDYLDIPAFLRRQAD", "values": [{"measurement": "binding result", "setting": "[3]", "result": "binds"}]}]}
